Where no end group is shown, it is not given here.

Assay [1] deals with T1, human TAP1 peptide DGKPLPQYEHRYLHR (human, also: conjugated to KLH for immunisation).
T1 construct: Synthetic peptide, conjugated to KLH for immunisation; also called immunogenic peptide
T1 peptide: DGKPLPQYEHRYLHR
The assay is described as follows: raised against the peptide; ELISA screen of antibody-expressing cells on the immunogenic peptide (Example 1). (In general: ELISA stands for enzyme-linked immunosorbent assay.)

The target in another assay is T2, human TAP1 protein (human, UniProt Q03518 1-748).
T2 construct: It is an intracellular protein; also called recombinant TAP1
T2 sequence: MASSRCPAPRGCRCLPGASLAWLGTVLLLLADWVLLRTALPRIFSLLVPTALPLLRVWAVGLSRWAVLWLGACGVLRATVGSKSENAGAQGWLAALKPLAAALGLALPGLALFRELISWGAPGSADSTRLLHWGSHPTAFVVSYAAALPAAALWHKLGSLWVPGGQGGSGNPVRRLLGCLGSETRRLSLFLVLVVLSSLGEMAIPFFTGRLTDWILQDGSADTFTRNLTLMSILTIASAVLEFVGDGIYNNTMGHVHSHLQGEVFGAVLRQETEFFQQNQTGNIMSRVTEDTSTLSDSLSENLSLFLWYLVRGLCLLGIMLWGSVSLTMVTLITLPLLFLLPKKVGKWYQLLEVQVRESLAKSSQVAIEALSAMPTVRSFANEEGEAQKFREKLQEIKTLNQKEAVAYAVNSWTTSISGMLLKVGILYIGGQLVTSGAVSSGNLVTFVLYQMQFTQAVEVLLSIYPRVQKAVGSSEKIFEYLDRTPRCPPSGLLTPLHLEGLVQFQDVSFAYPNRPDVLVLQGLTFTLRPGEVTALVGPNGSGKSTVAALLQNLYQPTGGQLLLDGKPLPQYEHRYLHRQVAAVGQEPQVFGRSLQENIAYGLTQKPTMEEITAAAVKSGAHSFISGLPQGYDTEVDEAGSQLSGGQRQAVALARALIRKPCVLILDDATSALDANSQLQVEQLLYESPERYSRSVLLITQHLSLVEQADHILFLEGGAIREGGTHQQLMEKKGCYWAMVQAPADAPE
In words: IHC on sections of cell blocks of 293T, 293T-TAP1 and 293T-TAP2 cells. An excerpt:
anti-TAP1 rabbit monoclonal primary antibodies were directed against the sequence […] (SEQ ID NO: 23), which represents amino acids 625-640 of human TAP1. The peptide was synthesized and covalently conjugated to keyhole limpet haemocyanin (KLH) carrier protein. Rabbits were immunized with KLH-conjugated peptide with complete Freund's adjuvant followed by a series of booster injections of the same immunogen in incomplete Freund's adjuvant. The rabbit that produced the best positive polyclonal antibody by immunohistochemistry (IHC) was chosen for monoclonal development. IHC staining was performed on a BenchMark automated slide stainer at Roche Diagnostics in Tucson, AZ. The staining procedure included deparaffinization, pretreatment using standard Cell Conditioning 1, incubation with antibody (TAP1: 0.925 μg/mL) at 36° C. for 16 min. […] TAP1 was detected by immunohistochemistry (IHC) using OptiView Universal DAB detection kit (Ventana).
Rabbit monoclonal antibody S14H22L21 was applied onto formalin fixed paraffin embedded tissue samples to assess the staining patterns of the antibody by IHC as described in Example 1. […] Cell lysates from HEK293T cells, HEK293T cells expressing TAP1, and HEK293T cells expressing TAP2 were analyzed alongside lysates from a negative control cell line (RPMI6226) and two positive control cell lines (HDLM2 and U266B1).

For the next assay, the target named is T3, human TAP2 protein (human, UniProt Q03519 1-686).
T3 construct: It is an intracellular protein; also called recombinant TAP2
T3 sequence: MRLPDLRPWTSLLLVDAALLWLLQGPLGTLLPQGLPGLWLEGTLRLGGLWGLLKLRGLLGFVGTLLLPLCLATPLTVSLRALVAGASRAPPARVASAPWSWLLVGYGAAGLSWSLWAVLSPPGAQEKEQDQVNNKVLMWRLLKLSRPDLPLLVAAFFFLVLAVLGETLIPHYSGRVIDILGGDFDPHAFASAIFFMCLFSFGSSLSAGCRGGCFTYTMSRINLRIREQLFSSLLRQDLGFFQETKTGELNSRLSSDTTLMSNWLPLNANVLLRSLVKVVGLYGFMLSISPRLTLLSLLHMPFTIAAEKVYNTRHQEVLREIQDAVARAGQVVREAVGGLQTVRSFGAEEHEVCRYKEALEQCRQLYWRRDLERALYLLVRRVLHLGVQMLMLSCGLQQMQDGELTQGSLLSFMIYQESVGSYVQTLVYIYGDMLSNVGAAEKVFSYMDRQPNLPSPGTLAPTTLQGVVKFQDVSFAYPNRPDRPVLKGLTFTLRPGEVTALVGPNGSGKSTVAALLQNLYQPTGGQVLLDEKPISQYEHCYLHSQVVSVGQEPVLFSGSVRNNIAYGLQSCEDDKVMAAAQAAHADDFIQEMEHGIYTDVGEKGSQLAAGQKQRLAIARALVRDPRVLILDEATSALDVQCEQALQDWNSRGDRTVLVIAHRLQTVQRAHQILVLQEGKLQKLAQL
In words: western blot of lysates of HEK293T cells expressing TAP2. On the procedure:
Rabbit monoclonal antibody S14H22L21 was applied onto formalin fixed paraffin embedded tissue samples to assess the staining patterns of the antibody by IHC as described in Example 1. Tissue samples included the positive and negative controls listed in Example 1, 8 ccRCC tissues, and a tour of tumor array (see FIGS. 4A-4B and 5A-5C). Western blot analysis was carried out to assess the specificity of S14H22L21. Cell lysates from HEK293T cells, HEK293T cells expressing TAP1, and HEK293T cells expressing TAP2 were analyzed alongside lysates from a negative control cell line (RPMI6226) and two positive control cell lines (HDLM2 and U266B1).
On the technique in general: Immunoblotting shows a protein as a band on a membrane.

B1: rabbit anti-human TAP1 monoclonal antibody S14H22L21 (antibody, V domains shown)
VH: QSVKESEGGLFKPTDTLTLTCTVSGFSLSSYEVIWVRQAPGKGLEWIGNIGWRDTTFYANWAKSRSTFTRDTNLNTVTLKMTSLTAADTATYFCARDNGYFGIDYWGPGTLVTVSS
VL: DIVMTQTPASVEAAVGGTVTIKCQASQSISNYLAWYQQKPGQPPKLLIYKASTLASGVPSRFSGSGSGTQFTLTISGVQCDDAATYYCQQDFNYRNIENVFGGGTGVVVK
notes: Recombinant rabbit monoclonal, purified on Protein A; also called clone S14H22L21; TAP1 antibody
For B1, the binding result in assay [1] was “binds”; in the assay with human TAP1 protein it was “binds”; with human TAP2 protein it was “no binding”.

Source of the values: patent US20260016475A1 (VENTANA MEDICAL SYSTEMS, published 2026).
